The values below come from publication PMC3608507 (Molecular Biology of the Cell, 2013).

Like-named read-outs stand apart in the source and are kept apart here.

Experiment in all cases: ELISA
The target in experiment [1] is His-paxillin (full-length) (UniProt P49023 1-591).
Experiment [2] deals with T1, His-lasp-2 (full-length) (UniProt Q9DC07 1-270).
T1 sequence: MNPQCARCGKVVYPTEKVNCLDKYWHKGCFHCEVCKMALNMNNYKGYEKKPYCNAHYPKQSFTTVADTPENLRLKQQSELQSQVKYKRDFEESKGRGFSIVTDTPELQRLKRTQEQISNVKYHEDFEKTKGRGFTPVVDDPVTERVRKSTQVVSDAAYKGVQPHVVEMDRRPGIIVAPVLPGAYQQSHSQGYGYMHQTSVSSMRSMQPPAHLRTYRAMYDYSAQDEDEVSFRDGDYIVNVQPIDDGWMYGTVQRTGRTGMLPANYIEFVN

For experiment [3], the target named is T1, His-lasp-2 (full-length). This is another data set of the same source.

Chain of His-paxillin (full-length) (P49023 whole entry): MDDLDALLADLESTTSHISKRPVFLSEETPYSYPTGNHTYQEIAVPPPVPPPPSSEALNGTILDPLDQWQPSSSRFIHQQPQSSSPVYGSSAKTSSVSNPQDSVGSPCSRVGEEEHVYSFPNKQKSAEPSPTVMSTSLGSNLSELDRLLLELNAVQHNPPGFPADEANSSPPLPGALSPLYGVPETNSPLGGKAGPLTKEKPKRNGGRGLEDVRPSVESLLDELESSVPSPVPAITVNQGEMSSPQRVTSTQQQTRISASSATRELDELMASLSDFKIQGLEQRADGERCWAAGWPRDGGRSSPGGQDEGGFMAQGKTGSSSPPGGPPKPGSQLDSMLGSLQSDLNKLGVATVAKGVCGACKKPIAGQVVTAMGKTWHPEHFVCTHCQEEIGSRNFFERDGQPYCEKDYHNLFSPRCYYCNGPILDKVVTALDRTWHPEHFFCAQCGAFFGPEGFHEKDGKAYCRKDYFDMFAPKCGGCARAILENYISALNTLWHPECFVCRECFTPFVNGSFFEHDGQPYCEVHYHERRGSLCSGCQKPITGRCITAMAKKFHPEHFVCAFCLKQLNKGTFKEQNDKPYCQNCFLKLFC

B1: GST-lasp-2 (full-length) (natural protein)
chain: MNPQCARCGKVVYPTEKVNCLDKYWHKGCFHCEVCKMALNMNNYKGYEKKPYCNAHYPKQSFTTVADTPENLRLKQQSELQSQVKYKRDFEESKGRGFSIVTDTPELQRLKRTQEQISNVKYHEDFEKTKGRGFTPVVDDPVTERVRKSTQVVSDAAYKGVQPHVVEMDRRPGIIVAPVLPGAYQQSHSQGYGYMHQTSVSSMRSMQPPAHLRTYRAMYDYSAQDEDEVSFRDGDYIVNVQPIDDGWMYGTVQRTGRTGMLPANYIEFVN
As to B1, in experiment [1], the Kd was ~20 nM.

B2: GST-lasp-1 (full-length) (natural protein)
chain: MNPNCARCGKIVYPTEKVNCLDKYWHKACFHCETCKMTLNMKNYKGYEKKPYCNAHYPKQSFTMVADTPENLRLKQQSELQSQVRYKEEFEKNKGKGFSVVADTPELQRIKKTQDQISNIKYHEEFEKSRMGPSGGEGVEPERREAQDSSSYRRPTEQQQPQPHHIPTSAPVYQQPQQQQMTSSYGGYKEPAAPVSIQRSAPGGGGKRYRAVYDYSAADEDEVSFQDGDTIVNVQQIDDGWMYGTVERTGDTGMLPANYVEAI
For B2, the Kd with His-lasp-2 (full-length) [2] was ~15 nM.

B3: His-vinculin-tail (amino acids 840-1066) (domain or fragment)
chain: PDFPPPPPDLEQLRLTDELAPPKPPLPEGEVPPPRPPPPEEKDEEFPEQKAGEVINQPMMMAARQLHDEARKWSSKGNDIIAAAKRMALLMAEMSRLVRGGSGTKRALIQCAKDIAKASDEVTRLAKEVAKQCTDKRIRTNLLQVCERIPTISTQLKILSTVKATMLGRTNISDEESEQATEMLVHNAQNLMQSVKETVREAEAASIKIRTDAGFTLRWVRKTPWYQ
With B3, in the experiment with His-lasp-2 (full-length) [3], the Kd is ~140 nM.
